Experiment [1] concerns the target HIV-2 (ROD) capsid N-terminal domain (HIV-2 (ROD)). Description: ITC; MicroCal ITC200; cyclophilin (typical concentration 1.4 mM) in the syringe, capsid (typical concentration 120 µM) in the cell; 50 mM KPO4 pH 7.4, 100 mM NaCl, 1 mM DTT; 15°C; one-state model. (In general: In ITC the heat of successive injections is recorded.)
In experiment [2] the target is HIV-1 M-type (NL4.3) capsid N-terminal domain (HIV-1 M-type (NL4.3)) (UniProt P12493). Described as above.
Experiment [3] concerns the target HIV-2 capsid N-terminal domain with an alanine inserted at position 88 (HIV-2 (ROD)). The description is as above.
Experiment [4] concerns the target HIV-2 (ROD) capsid N-terminal domain (HIV-2 (ROD)).
The target of experiment [5] is HIV-1 M-type (NL4.3) capsid N-terminal domain (HIV-1 M-type (NL4.3)) (UniProt P12493).

The source of these data is article PMC2924388.

Take “CypA domain of Mafa TRIMCyp2 with Cyp K143E (K446E in TRIMCyp) (domain or fragment)”: the Kd stood at 13 µM in experiment [1], 12 µM in experiment [2] and 9 µM in experiment [3]. Moreover, the restriction of the infectivity of the HIV-2 vector in CRFK cells expressing whole Mafa TRIMCyp2 Cyp K143E; completely rescued by 5 µM cyclosporine (orders of magnitude) in experiment [4] is 2. The substance further showed a restriction of the infectivity of the HIV-1 vector in CRFK cells expressing whole Mafa TRIMCyp2 Cyp K143E; partially rescued by 5 µM cyclosporine (orders of magnitude) in experiment [5] of 2.
For the substance “CypA domain of Macaca fascicularis TRIMCyp2 (Mafa TRIMCyp2) (domain or fragment)”, the Kd in experiment [2] was found to be 12 µM; in experiment [3], 207 µM.

The Kd is the free concentration of one partner at which half of the binding sites on the other are occupied at equilibrium, for simple one-to-one binding.
